Reference: patent EP2108954A1, “A test system for detecting intracellular cyclic nucleotide level and methods and uses thereof” (Max-Planck-Gesellschaft zur Förderung der Wissenschaften …, priority 2008, dated 2009)
The star is where a group is joined. Myristoyl = CCCCCCCCCCCCCC(=O)*

Target: T1, Or83b (Drosophila melanogaster, UniProt Q9VNB5)
T1 sequence (Q9VNB5 1-486): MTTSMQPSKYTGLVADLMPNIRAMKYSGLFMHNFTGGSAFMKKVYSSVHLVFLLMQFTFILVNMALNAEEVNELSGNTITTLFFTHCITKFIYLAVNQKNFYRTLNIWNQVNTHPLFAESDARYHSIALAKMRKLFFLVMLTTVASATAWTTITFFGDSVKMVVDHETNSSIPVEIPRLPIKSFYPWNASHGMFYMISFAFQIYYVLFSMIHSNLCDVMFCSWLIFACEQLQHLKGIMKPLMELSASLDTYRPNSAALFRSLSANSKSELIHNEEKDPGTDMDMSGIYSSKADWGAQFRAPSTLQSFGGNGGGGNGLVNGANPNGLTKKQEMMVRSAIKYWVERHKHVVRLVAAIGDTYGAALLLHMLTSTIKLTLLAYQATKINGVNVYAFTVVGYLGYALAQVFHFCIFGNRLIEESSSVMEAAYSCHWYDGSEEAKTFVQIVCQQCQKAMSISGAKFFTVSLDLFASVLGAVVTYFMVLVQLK
Test: Whole-cell patch-clamp of HEK293 cells expressing Or83b alone
Format: cell-based
Design: expressed in transfected cells; host or cells: HEK293
Conditions: 1 µM; n = 6
Description: HEK293 cells were cultured as described by Wicher and colleagues (Wicher et al., J. Biol. Chem. 281, 3227-36 (2006)). In brief, HEK293 cells were cultured at a density of ∼2*10^4 per 35-mm dish and transfected with 1 µg pcDNA3-DOR22a-GFP and 1 µg pcDNA3-DOR83b-GFP (Neuhaus, et al., Nat. Neurosci. 8, 15-17 (2005); DNAs were a generous gift of Dr. E. Neuhaus and Dr. H. Hatt) using Roti-Fect transfection kit (Roth, Karlsruhe, Germany). In some experiments we transfected cells with pcDNA3-DOR22a-GFP or pcDNA3-DOR83b-GFP alone. We also examined the properties of DOR47a, which was cloned, using standard molecular biology methods into a pcDNA3.1(-) expression vector. To test for putative G-protein coupling, cells were transfected with the respective OR-DNA together with 1.5 µg hHCN2/pcDNA3 (provided by M. Biel, Munich, Germany), with 1 µg hKCNQ4/pcDNA3.1 or with 1 µg hCNGA2/pCMV6-XL4 (Origene, Rockville, MD, USA).
Ion currents in HEK293 cells were measured with the patch-clamp technology as described (Wicher et al, J. Biol. Chem. 281, 3227-36 (2006)). In brief, ion currents in HEK293 cells were measured at room temperature using whole-cell patch-clamp with appropriate compensation of series resistance and of capacitive currents. Additional experiments were performed in the outside-out configuration. […]

myristoylated PKA inhibiting peptide 14-22 amide (Myristoyl-SGRTGRRNA-NH2; SMILES CCCCCCCCCCCCCC(=O)N[C@@H](CO)C(=O)NCC(=O)N[C@@H](CCCNC(=N)N)C(=O)N[C@H](C(=O)NCC(=O)N[C@@H](CCCNC(=N)N)C(=O)N[C@@H](CCCNC(=N)N)C(=O)N[C@@H](CC(N)=O)C(=O)N[C@@H](C)C(N)=O)[C@@H](C)O; UniProt P61925 14-22, looked up, fragment) [PKI1422]
effect of preincubation on ion currents elicited by 8-bromo-cAMP: not significantly altered
